Source: paper PMC5640511 (Current Biology, 2017)

Molecular target: Bub3 (recombinant, untagged) (human, UniProt O43684 1-328)
Assay: SEC

Sequence of Bub3 (recombinant, untagged) (O43684 whole entry): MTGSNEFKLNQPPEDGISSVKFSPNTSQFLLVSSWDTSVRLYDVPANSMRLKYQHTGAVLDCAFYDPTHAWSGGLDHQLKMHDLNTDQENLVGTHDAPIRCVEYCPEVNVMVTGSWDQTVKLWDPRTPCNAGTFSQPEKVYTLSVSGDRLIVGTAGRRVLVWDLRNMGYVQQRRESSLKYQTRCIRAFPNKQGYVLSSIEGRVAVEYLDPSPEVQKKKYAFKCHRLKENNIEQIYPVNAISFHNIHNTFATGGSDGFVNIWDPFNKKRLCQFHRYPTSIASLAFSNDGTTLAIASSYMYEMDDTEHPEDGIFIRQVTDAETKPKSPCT

- binding result: binds
B1: BubR1 1-571 B1-LL (recombinant) (other)
chain: MAAVKKEGGALSEAMSLEGDEWELSKENVQPLRQGRIMSTLQGALAQESACNNTLQQQKRAFEYEIRFYTGNDPLDVWDRYISWTEQNYPQGGKESNMSTLLERAVEALQGEKRYYSDPRFLNLWLKLGRLCNEPLDMYSYLHNQGIGVSLAQFYISWAEEYEARENFRKADAIFQEGIQQKAEPLERLQSQHRQFQARVSRQTLLALEKEEEEEVFESSVPQRSTLAELKSKGKKTARAPIIRVGGALKAPSQNRGLQNPFPQQMQNNSRITVFDENADEASTAELSKPTVQPWIAPPMPRAKENELQAGPWNTGRSLEHRPRGNTASLIAVPAVLPSFTPYVEETARQPVMTPCKIEPSIRRVITISKSEYSVHSSLASKVDVEQVVMYCKEKIYAGVGEFSFEEIRAEVFRKKLKEQREAELLTSAEKRAEMQKQIEEMEKKLKEIQTTQQERTGDQQEETMPTKETTKLQIASESQKIPGMTLSSSVCQVNCCARETSLAENIWQEQPHSKGPSVPFSIFDEFLLSEKKNKSPPADPPRVLAQRRPLAVLKTSESITSNE
